# In the DeepSol protein solubility set:
# Experiment: soluble on expression in E. coli; label from the status in PepcDB or PDB records
row,Sequence,soluble on expression in E. coli
1,MSLFHFVIKGTGFSSKNLQEIKVYEETLFCIDEAGVIQEIIEPDAEAYETVLAEQKEAQRFQELPQDSYLLPGFVDLHVHAPQWAQSGTALDIPLYEWLNTYTFPLESKFADLAFAQQVYDELVTQLLANGTTTALYFATIHYEASRRLAEICAEKGQRGLIGKVVMDDLNENPEYYRDQTTQQALEETERFIQEIQTLAQQTKQGVYPVVTPRFIPSCTEEALKGLGELAAKYQVHVQSHCSESDWEHQFVQERFEKNDAQALNDFGLLTEKAVMAHAGFLEEADMNLFHETGTAVAHCPISNAYFGNAVTPIAKLVHQHQVEVGLGSDLSGGFSPSLFDNLKQAVISSRMLEDGVDATKKPEVRGVKTARITVNEAFYLATAGGGQALSLPIGKLEKGYAWDVQIINTSLSQARIPKNPGESLLDIFQKILYLARPENIREVWVQGEKVHDKNLMSATKGVEGHHHHHH,soluble
2,MGSDKIHHHHHHMKKRLLLNTDDYGWDLDANAAIIDLLQSDSIHNVTLLANYCDSDVLRAISPFQDRASLGIHVCLNSGQALSGSTRSTLHDACGNFYDSKTLFQRAFFGELNYSDVLLEIKSQYYYLSDHGIDITHADSHQHIHQYPFLSGMITQALHEIGVKNIRRCRPLEVKNIRRYLIYFFYQCTKNNLNKFNSPDVLVTDFTHSGFSFSTDVQPILKKLSLSHYSTIEWMCHPAREDKAGSYLQRKKEYDFLKKCDWDILLNGTGIERSQYRYI,not soluble
3,KTTVRVGLVQWQMRPYKTLDDVFEQVEFFVDAVSDYKSDFVLFPEYFNAPLMAKFNHLGEAQSIRGLAQYTEEVRDRFINLAISYNINIITGSMPYVKEDGGLYNVGFLVRRDGSYEMYEKVHVTPDEIKSWGLSGGKMVQTFDTDCAKIGILICYDVEFPELSRIMADQGMQILFVPFLTDTQNGYSRVRVCAQARAIENECFVVIAGSVGNLPRVHNMDIQYAQSGVFTPCDFAFPTDGKRAEATPNTEMILVSDVDLNLLNELHTYGSVRNLRDRRHDLYELKIKK,not soluble
4,AKHLFTSESVSEGHPDKIADQISDAVLDAILEQDPKARVACETYVKTGMVLVGGEITTSAWVDIEEITRNTVREIGYVHSDMGFDANSCAVLSAIGKQSPDINQGVDRADPLEQGAGDQGLMFGYATNETDVLMPAPITYAHRLVQRQAEVRKNGTLPWLRPDAKSQVTFQYDDGKIVGIDAVVLSTQHSEEIDQKSLQEAVMEEIIKPILPAEWLTSATKFFINPTGRFVIGGPMGDCGLTGRKIIVDTYGGMARHGGGAFSGKDPSKVDRSAAYAARYVAKNIVAAGLADRCEIQVSYAIGVAEPTSIMVETFGTEKVPSEQLTLLVREFFDLRPYGLIQMLDLLHPIYKETAAYGHFGREHFPWEKTDKAQLLRDAAGLK,soluble
5,SGEKSENCGVPEDLLNGLKVTDTQEAECAGPPVPDPKNQHSQSKLLRDDEAHLQEDQGEEECFHDCSASFEEEPGADKVENKSNEDVNSSELDEEYLIELKKNMSDEEKQKRREESTRLKEEGNEQFKKGDYIEAESSYSRALEMCPSCFQKERSILFSNRAAARMKQDKKEMAINDCSKAIQLNPSYIRAILRRAELYEKTDKLDEALEDYKSILEKDPSIHQAREACMRLPKQIEERNERLKEEMLGKLKDLGNLVLRPFGLSTENFQIKQDSSTGSYSINFVQNPNNNR,soluble
6,MLNTRLELNKRIDNNVQLKYTEQKIFGNSKEIIGCEVLLDFEYAKKNQVAWKYLTMMHNGASLLSLIVYVNESILRYVKSNINKVFINVERISLCNSRHVGLITRLNEKMSEHNISLIVEITERGSDIPFVEIKNGLKSLQCSHVKLAMDDYDYKKTDFRSDEIFDYDYIKVDFPKTKAELDSFNNFVFLTSMFTCLIVERIENENDFFSVKNNRIWGYQGFAFCQKESFEGWSDNTSDNNVF,not soluble
7,MLNQNERHQILEEAVEWLMQMKQKPLNEIELLEFEQWKNRSQLHQSIWQQAYQLEEKFQSLPSHIAIPIIQKQKSHPDIWLMVLSCLPLLGLLYVMNQQQQWTADYRNGFHAPQTVKLPDGGKIILNSNTAIDVKYTAKKRDIILRKGEIWIETQHDVKNRPFTVYTQQGQAQALGTKYLVKIDQKSSQIAVLKGAVKVQPKTNNQYVIITKGQKISINQYNLHSVEYFDHSEIGWTKGLIMVNEIPLSEFVQKLRPYQSALIYLDPEVSNIKISGTFPIANMAQLYEMLENTYAIDVDRYAMNHIIRIRQKK,not soluble
8,MGSDKIHHHHHHMTVGTLPIWSKTFSYAIRSLCFLHIIHMYAYEFTETRGESMLPTLSATNDYVHVLKNFQNGRGIKMGDCIVALKPTDPNHRICKRVTGMPGDLVLVDPSTIVNYVGDVLVDEERFGTYIKVPEGHVWVTGDNLSHSLDSRTYNALPMGLIMGKIVAANNFDKPFWDGSIRNIWGFKWINNTFLDVQAKSN,not soluble
9,MPKLILLGDSTLDNFNWVPNKATVTDHLRRQLPKMEILNFAVDGFTTDSILYGEYKDCAVTSSQHTHKYFEPLKALENEQDVEHIVLSVLGNDFRIQLSKLIFMAPEERPKAIEQLINHIIKNYIQVVKEIRKVQPNAKLSIVLQYTPYVENDPYLIYFLMDKLFHHGTVSHGFLSYLQIMYYSIFGLNSKHEQQALNLLHKLMAKVYRNVFNELGDNSLAIIDLASSFDYRNSKLYKAQIEPSDEGGKLIASLITHTITHHDFQNESMLYAKPPLQPNPKILAVPLTKLKKDWFPQQIYVTQEQAITAFKQAYLLQLNKDRQSYLGLYSFFARSNVDFEHATLEKLIVHAQNYSTKKTGYRTLKVMQNLGWLTEQGNIKEESGIVRLLKN,not soluble
10,MVTRITGLASGMDIDDIVSKLMQTERAPLDKLTQKKQTLEWQRDSYREVNSKIKELQDYMSKNTLTYPSTYQSKTVTSSNESVLTATGSVSAPNSSSTVEVASLATAATYKANNYTGYTQGDYNLAFNVVAPGETTAKTVNISVTSADTIDNVISKLNSSDLGVSAFKDKIWNGTEYVETIAFSSKATGAGGSIQAADSATADFMSGQLGFSLDADNKLTAYKEGTNAKVTINGFEMEKLTNNFTVNGVTYSIKNTTAATGPVTTSVSTDVDGIYNQIKEFVDKYNELVDSLNEKLKEEKYRDYTPLTSEQKEAMSDKEVELWEEKAKSGLLRNDSSISTGTNQMRTDFYTQVNADGKTYQLTEFGITTSSAYQLRGHLEINEEKLKAKIAEDPQGVANLFTSGTNDSNYSDKGIMKRITNTLRSTVKSIEAKAGNSTMGASSYSIGKNLNSISTEITDMQDRLNTIENRYYSKFSAMDSAIQKMNEQASYLSQLLVQ,not soluble
11,SLGNSYAGQLKTTRFEEVLHNSIEASLRSNNLVPRPIFSQLYLEAEQQLAALEGGSRVDNEEEEEEGEGGLETNGPPNPFQLHPLPEGCCTTDGFCQAGKDLRLVSISNEPMDVPAGFLLVGVKSPSLPDHLLVCAVDKRFLPDDNGHNALLGFSGNCVGCGKKGFCYFTEFSNHINLKLTTQPKKQKHLKYYLVRNAQGTLTKGPLICWKGSEFRSRQIPASTCSSSLFPALESTAAFPSEPVPGTNPSILMGAQQAGPASDHPSLNAAMGPAVFNGKDSPKCQQLAKNNLLALPRPSALGILSNSGPPKKRHKGWSPESEG,soluble
12,MAVRKLWKTVVQLFSKSKSEECNTEAGTMEVSFLKYGVRGLNADCSYVKSQCIKLSECECLYTFASDVCKEDFHNSEEMKVFVVQHSQEMVDGTDLFVHAEESV,not soluble
13,MFAVDPQMNQTVNSPKGQLLLRTLAMPADTNANGDIFGGWIMSQLDLAGGILAKEISCGRIVTVSVSSITFKKPVKVGDVVCCYGECTKIGRTSMSINLEVWVKPVKEEGVGERFQVCEATFNYVAIDANGRPRAISLSNGSQKSSLEHHHHHH,not soluble
14,MSLTKFHGVFPPVPTIVNAQGELDKVGMATLLDHLIASKVNGVLLLGSGGEFCHMTNALRLETAEFCVRHINRRIPVLLGISSTSTQEVIEYGQHADRLEVDAVLVLNPYYARLTDEYIYHHFKTVANNIKSPVILYNFPALTGQDLSVDLITRLAQDHPNIIGIKDTVDNISHIREIINNVRPVRPDFVIFSGYDEYMMDTLILGGNGGIPATANFAPQLTCGIYRAWCEKEYETMFGLQRRLSALSTIYSLDSPFFGIIKKAIQLSGVDISTHVMPPVLPANEEHISNLKQILQRAGLEGHHHHHH,soluble
15,MTCDDLKSGEKRLIPKPTCRFKDAFQQYPDLLKSIIRVGILKPTPIQSQAWPIILQGIDLIVVAQTGTGKTLSYLMPGFIHLDSQPISREQRNGPGMLVLTPTRELALHVEAECSKYSYKGLKSICIYGGRNRNGQIEDISKGVDIIIATPGRLNDLQMNNSVNLRSITYLVIDEADKMLDMEFEPQIRKILLDVRPDRQTVMTSATWPDTVRQLALSYLKDPMIVYV,soluble
